Laboratory results from patent US20130035289A1, “PHARMACEUTICAL COMPOSITION FOR TREATMENT OF THROMBOSIS-RELATED DISEASES COMPRISING A FRAGMENT OF PROLACTIN (PRL)-GROWTH HORMONE (GH)-PLACENTAL LACTOGEN (PL)-FAMILY PROTEIN” (UNIVERSITE DE LIEGE, priority 2010, published 2013).

biological target: T1, PAI-1 (Mus musculus, UniProt P22777); assay: Murine thromboembolism model (tPA/thromboplastin); format: in vivo; details: POPRL 7-12 10 mg/kg i.v. 5 min before t-PA/thromboplastin; control 50; p=0.3
T1 construct: from tissue; host or cells: BalbC Njrj mice, in vivo (blood)
T1 sequence (P22777 23-402): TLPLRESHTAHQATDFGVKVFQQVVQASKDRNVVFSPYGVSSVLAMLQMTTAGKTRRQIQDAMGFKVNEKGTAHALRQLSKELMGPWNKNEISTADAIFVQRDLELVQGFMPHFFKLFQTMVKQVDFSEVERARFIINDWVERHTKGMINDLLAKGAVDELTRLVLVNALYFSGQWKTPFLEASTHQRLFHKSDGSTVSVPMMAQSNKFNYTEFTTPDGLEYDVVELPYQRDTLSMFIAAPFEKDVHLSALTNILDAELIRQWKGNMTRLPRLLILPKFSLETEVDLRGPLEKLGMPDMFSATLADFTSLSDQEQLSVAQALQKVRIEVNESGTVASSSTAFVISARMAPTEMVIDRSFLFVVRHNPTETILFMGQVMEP
Description: BalbC Njrj Mice were used and anesthetised with ketamine/xylazine throughout the whole experiment. Recombinant 16K PRL and adenovirus vectors 16K-Ad and Null-Ad were produced as described above. The animal experiment protocol used was approved by the Institutional Ethics Committee of the University of Liege.
Recombinant 16K PRL (1 mg/kg) or POPRL 7-12 (10 mg/kg) were administrated via the vein to BalbC Njrj mice of approximately 15-18 g. Five minutes after the injection, a suboptimal concentration of t-PA (0.1 mg/kg) was injected immediately followed by i.v. injection of thromboplastin (3.3 μg/kg) to evoke thromboembolism. Mice were evaluated after 15 min for survival. For experiment with adenovirus vectors, mice were injected into the tail vein with 10^9 pfu of 16K hPRL adenovirus (16K-Ad) and their corresponding control (Null-Ad) 5 days before the injection a suboptimal concentration of t-PA (0.1 mg/kg) injected immediately followed by i.v. injection of thromboplastin (3.3 μg/kg).
The fisher test was used to determine the significance of the differences in the mortality assays.

Row | Substance | mortality
1 | SILRSW [POPRL 7-12] | 30%

biological target: T2, PAI-1 (Homo sapiens, UniProt P05121); assay: Casein zymography of plasmin generation by uPA in presence of PAI-1; format: biochemical; details: not given
T2 construct: gift of Pr; P. Declerck
T2 sequence (P05121 24-402): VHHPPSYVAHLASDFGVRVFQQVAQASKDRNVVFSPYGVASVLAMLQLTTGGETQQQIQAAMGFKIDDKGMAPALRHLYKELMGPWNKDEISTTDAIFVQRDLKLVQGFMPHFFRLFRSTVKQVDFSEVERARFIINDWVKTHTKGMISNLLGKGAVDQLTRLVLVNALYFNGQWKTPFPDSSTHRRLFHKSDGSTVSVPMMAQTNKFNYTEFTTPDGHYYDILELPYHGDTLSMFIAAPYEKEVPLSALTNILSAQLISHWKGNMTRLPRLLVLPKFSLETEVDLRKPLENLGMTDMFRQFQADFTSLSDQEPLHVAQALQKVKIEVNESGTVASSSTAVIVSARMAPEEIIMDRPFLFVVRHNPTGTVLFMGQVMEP
Description: (a) Proteolytic activity of uPA on plasminogen (Plg) in different conditions was determined by colorimetric assay (absorbance at 405 nm) as described in Methods. […] The data represent the means±SD of duplicate samples and experiment was repeated at least three times. (b) Casein zymography showing Plg and plasmin (Pln) generation by uPA in the presence of PAI-1 alone or in combination with 14K GH or 22K GH.
For this test casein (1 mg/ml) was incorporated in 10% SDS polyacrylamide gels. Aliquots of in vitro reaction including recombinant proteins were mixed with loading buffer (10% SDS, 4% Sucrose, 0.25M Tris-Hcl pH6-8, 0.1% Bromophenol blue). After electrophoresis, SDS was removed from the gel by two washes (30 min each) of 100 mM glycine, 2.5% Triton buffer (pH 8.0) stained with 0.1% coomassie brilliant bleu, and destained in 20% methanol/10% acetic acid.

Row | inhibition of plasmin (Pln) generation in the presence of PAI-1 | Substance
2 | no effect | 22K GH: the full fragment (full-length) growth hormone [reference compound]

biological target: T2, PAI-1; assay: In vitro clot lysis assay in pooled normal human plasma with added PAI-1 and tPA; format: biochemical; details: peptides 25 μM, human plasma
Description: Clot lysis was performed as follows: pooled normal plasma were used in citrated tube. Recombinant wild type PAI-1 was incubated in the presence or in the absence of 16K hPRL (3 μM), 14K hGH (3 μM) or different peptides (25 μM) for 10 min at 37° C., before to be added to diluted plasma in tris tween buffer (75 μl of plasma in 200 μl of 10 mM TRIS pH 7.5, 0.01% tween 20), followed by a second incubation for 10 min at 37° C. tPA was added to each tube at the end to reach a final volume of […]. Aliquots from each tube (80 μl) were added in duplicate to 96 wells, each containing 20 μl CaCl2 to give the following final concentration per well of 10 mM. Clot formation and dissolution were monitored at RT measuring turbidity at 405 nm in 5 min intervals.

Row | Substance | clot lysis in the presence of added PAI-1
3 | SLLLIQ [POGH 5-10] | as effective as the tilted peptide of GH: POGH

same assay, conditions: yes/no; peptides 25 μM, human plasma, added PAI-1, tPA

Row | Substance | ablility to induce clot lysis
4 | SILRSW [POPRL 7-12] | yes
5 | SLLLIQ [POGH 5-10] | yes
6 | IQSWLE [POGH 9-14] | yes
7 | IVSILR [POPRL 5-10] | yes
8 | RISLLL [POGH 3-8] | yes
9 | FLSLIV [POPRL 1-6] | yes

Results, then the substance that gave them:

Row | ablility to induce clot lysis | Substance
10 | yes | LLRISLLLIQSWLE [POGH]
11 | no | LSQILSSLIQSWLE [POGHmut, reference compound]
12 | yes | LLRISL [POGH 1-6]

biological target: T2, PAI-1; assay: Inhibition of PAI-1 anti-proteolytic activity, uPA/plasminogen chromogenic (colorimetric) assay; format: biochemical; details: uPA, bovine plasminogen, PAI-1, absorbance 405 nm
Description: The main physiological function of PAI-1 is to inhibit uPA and tPA proteolytic activity. […] A chromogenic substrate for plasmin (Spectrozyme PL: 0.5 mM. American Diagnostica INC) in PBS was added to the mixture in 96-well microtitration plates and kept at room temperature. The release of free p-nitro-aniline from the chromogenic substrate was measured spectrophotometrically. The activity of plasmin was determined as the absorbance at 405 nm.

Row | inhibition of PAI-1 function to inhibit uPA and tPA proteolytic activity | Substance
13 | did not show any inhibition | 22K GH: the full fragment (full-length) growth hormone [reference compound]

same assay, conditions: yes/no; table title: Peptide fragments inhibiting PAI-1

Row | Substance | PAI-1 activity in vitro (chromogenic assay)
14 | SILRSW [POPRL 7-12] | yes
15 | SLLLIQ [POGH 5-10] | yes
16 | IQSWLE [POGH 9-14] | yes
17 | IVSILR [POPRL 5-10] | yes
18 | RISLLL [POGH 3-8] | yes
19 | FLSLIV [POPRL 1-6] | yes

More lines, now with the values ahead:

Row | PAI-1 activity in vitro (chromogenic assay) | Substance
20 | yes | LLRISLLLIQSWLE [POGH]
21 | no | LSQILSSLIQSWLE [POGHmut, reference compound]
22 | yes | LLRISL [POGH 1-6]
